Experimental data: publication PMC7467691, “Meiotic chromosome synapsis depends on multivalent SYCE1-SIX6OS1 interactions that are disrupted in cases of human infertility” (Science Advances, 2020)

B1: SYCE1POF (human SYCE1 amino acids 1 to 240, truncated product of the POF mutation c.613C>T, p.Gln241*) (domain or fragment, UniProt Q8N0S2 1-240, looked up)
chain: MAGRSLTSKAEPTAGAVDRAEKAGGQDTSSQKIEDLMEMVQKLQKVGSLEPRVEVLINRINEVQQAKKKANKDLGEARTICEALQKELDSLHGEKVHLKEILSKKQETLRILRLHCQEKESEAHRKHTMLQECKERISALNLQIEEEKNKQRQLRLAFEEQLEDLMGQHKDLWDFHMPERLAKEICALDSSKEQLLKEEKLVKATLEDVKHQLCSLCGAEGPSTLDEGLFLRSQEAAATV
notes: SYCE1, human, amino acids 1 to 240, relative to the canonical 351-amino acid isoform; product of the premature stop codon p.Gln241*; The purified material held about equal amounts of the full protein and a degradation product; source: also co-expressed with SIX6OS1N
B2: SYCE1core (human SYCE1 amino acids 25 to 179) (domain or fragment, UniProt Q8N0S2 25-179, looked up)
chain: GQDTSSQKIEDLMEMVQKLQKVGSLEPRVEVLINRINEVQQAKKKANKDLGEARTICEALQKELDSLHGEKVHLKEILSKKQETLRILRLHCQEKESEAHRKHTMLQECKERISALNLQIEEEKNKQRQLRLAFEEQLEDLMGQHKDLWDFHMPE
notes: Synaptonemal complex central element protein 1 (SYCE1), human, amino acids 25 to 179, numbers relative to the canonical 351-amino acid isoform; also called SYCE1 structural core; SYCE1 25–179; source: co-expressed with SIX6OS1N for the complex
B3: full-length SYCE1 (human) (natural protein, UniProt Q8N0S2 1-351, looked up)
chain: MAGRSLTSKAEPTAGAVDRAEKAGGQDTSSQKIEDLMEMVQKLQKVGSLEPRVEVLINRINEVQQAKKKANKDLGEARTICEALQKELDSLHGEKVHLKEILSKKQETLRILRLHCQEKESEAHRKHTMLQECKERISALNLQIEEEKNKQRQLRLAFEEQLEDLMGQHKDLWDFHMPERLAKEICALDSSKEQLLKEEKLVKATLEDVKHQLCSLCGAEGPSTLDEGLFLRSQEAAATVQLFQEEHRKAEELLAAAAQRHQQLQQKCQQQQQKRQRLKEELEKHGMQVPAQAQSTQEEEAGPGDVASPKPLKGERPGAAHQAGPDVLIGQEDTLHPDLSPRGFQEIKELF
notes: SYCE1, human, full length; canonical 351-amino acid isoform; source: E. coli BL21(DE3), purified; co-expressed with SIX6OS1N for the complex

Experiments:
[1] = molecular target: the molecule itself; assay: SEC-MALS; 5 to 20 mg/ml in 20 mM tris (pH 8.0), 150 mM KCl, 2 mM DTT; Superdex 200 Increase 10/300 GL at 0.5 ml/min
[2] = molecular target: T1, SIX6OS1N (human SIX6OS1 amino acids 1 to 67) (human, UniProt Q8N1H7 1-67); assay: as above; settings: both partners purified
T1 construct: Protein SIX6OS1, human, amino acids 1 to 67; also called SIX6OS1 1–67; source: E. coli BL21(DE3), co-expressed with SYCE1 constructs, purified as complex (MBP removed by TEV); not shown: MBP, N-terminal, cleaved
T1 sequence (looked up): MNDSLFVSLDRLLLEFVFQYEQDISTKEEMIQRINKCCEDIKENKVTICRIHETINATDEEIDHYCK

Binder	stoichiometry N [1]	stoichiometry N [2]	binding result [1]
B1	2	1	–
B2	–	1	binds
B3	–	1	–
